What is called pKd is the negative decadic logarithm of the Kd, by convention in mol/L. Higher therefore signals a low Kd.

pKd: −log10 of the molar value.

One assay concerns the target HLA-B*46:01. Kind of assay: IEDB peptide-MHC binding, purified MHC/direct/fluorescence; filed as Kd, often an IC50 or EC50 that approximates it; ≥ and ≤ were set here for values at or beyond the usual limits of such assays.
The target of a further assay is HLA-B*58:01. The assay is described as above.
For a further assay, the target named is HLA-A*24:02. The description is as above.
Another assay has as its target HLA-A*26:01. The description is as above.
In another assay the target is HLA-B*44:02. The description is as above.
Another assay deals with HLA-B*08:02. The assay is described as above. To be noted: source organism: Influenza A virus(A/swine/Shandong/fNY/2003(H9N2)).
A further assay concerns the target HLA-A*11:01. Described as above.
Another assay deals with HLA-A*01:01. The description is as above.
A further assay has as its target HLA-A*31:01. The description is as above.
The next assay has as its target HLA-A*02:01. Described as above.
The target of a further assay is HLA-B*07:02. Described as above.
Assay [1] has as its target HLA-B*27:05. Described as above.
The target of assay [2] is HLA-B*08:01. The description is as above.
For a further assay, the target named is HLA-B*40:01. Described as above.
The next assay addresses HLA-B*15:01. The assay is described as above.
The target in the next assay is HLA-A*03:01. The assay is described as above.
The next assay deals with HLA-A*69:01. The description is as above.
A further assay concerns the target HLA-B*15:09. Described as above. To be noted: source organism: Giardia lamblia ATCC 50803.
Assay [3] deals with HLA-B*27:05. Briefly: IEDB peptide-MHC binding, purified MHC/competitive/fluorescence; filed as Kd, often an IC50 or EC50 that approximates it; ≥ and ≤ were set here for values at or beyond the usual limits of such assays.
For assay [4], the target named is HLA-B*08:01. The description is as above. The settings on record: source organism: Yersinia pestis Antiqua.
For another assay, the target named is HLA-A*24:03. Briefly: IEDB peptide-MHC binding, purified MHC/direct/fluorescence; filed as Kd, often an IC50 or EC50 that approximates it; ≥ and ≤ were set here for values at or beyond the usual limits of such assays.
In the next assay the target is HLA-A*23:01. The description is as above.
Assay [5] deals with HLA-B*35:01. Described as above.
For a further assay, the target named is HLA-A*30:01. The assay is described as above.
The target of the next assay is HLA-B*18:01. Described as above. To be noted: source organism: Escherichia coli O157:H7.
In assay [6] the target is HLA-B*35:01. Briefly: IEDB peptide-MHC binding, purified MHC/competitive/fluorescence; filed as Kd, often an IC50 or EC50 that approximates it; ≥ and ≤ were set here for values at or beyond the usual limits of such assays. To be noted: source organism: West Nile virus.
[7] abbreviates: source organism: Influenza A virus (A/Viet Nam/HN/2004(H5N1)).
[8] abbreviates: source organism: Giardia lamblia ATCC 50803.
Setting [9] is: source organism: Francisella tularensis subsp. holarctica LVS.
Setting [10] is: source organism: Pseudomonas aeruginosa UCBPP-PA14.
[11] abbreviates: source organism: Pseudomonas aeruginosa.
The mark [12] stands for this setting: source organism: Escherichia coli O157:H7.
Where [13] appears, read: source organism: dengue virus type 2.

As for ERNEQGQTL, the negative-log Kd (pKd) in the assay with HLA-B*46:01 (setting [7]), with HLA-B*58:01 (setting [7]), in the assay with HLA-A*24:02 (setting [7]), in the assay with HLA-A*26:01 (source organism: Influenza A virus(A/swine/Shandong/fNY/2003(H9N2))), with HLA-B*44:02 (setting [7]) and in the assay with HLA-B*08:02 was at most 4.70 each time. Besides, the pKd with HLA-A*11:01 (setting [7]), in the assay with HLA-A*01:01 (setting [7]), in the assay with HLA-A*31:01 (setting [7]), with HLA-A*02:01 (setting [7]), with HLA-B*07:02 (setting [7]) and in the assay with HLA-B*27:05 [1] (setting [7]) was at most 4.70 throughout. The pKd with HLA-B*08:01 [2] (setting [7]), with HLA-B*40:01 (setting [7]), in the assay with HLA-B*15:01 (setting [7]) and with HLA-A*03:01 (setting [7]) was at most 4.70 throughout.

In the case of LERIKANIF, the pKd with HLA-B*46:01 (setting [8]), with HLA-B*58:01 (setting [8]), with HLA-A*24:02 (setting [8]), with HLA-B*44:02 (setting [8]), with HLA-A*11:01 (setting [8]) and with HLA-A*69:01 (setting [8]) was at most 4.70 each time. Also, the pKd with HLA-A*01:01 (setting [8]), with HLA-B*15:09, in the assay with HLA-A*31:01 (setting [8]), with HLA-A*02:01 (setting [8]), with HLA-B*07:02 (setting [8]) and in the assay with HLA-B*27:05 [1] (setting [8]) was at most 4.70 throughout. Moreover, the pKd with HLA-B*08:01 [2] (setting [8]) is 4.78; with HLA-B*40:01 (setting [8]) it was 5.61; with HLA-B*15:01 (setting [8]), 6.04; with HLA-A*03:01 (setting [8]) it was at most 4.70.

Consider LRQKRKAGV, for which the pKd with HLA-B*27:05 [3] (source organism: Yersinia pestis Antiqua) is 7.09; in the assay with HLA-B*08:01 [4] it was at most 4.70.

On to VYYIVVRDF, for which the pKd in the assay with HLA-A*24:02 (setting [9]) was 8.21; with HLA-A*24:03 (setting [9]), 7.56; with HLA-A*23:01 (setting [9]), 7.77.

For the sequence SPADERAVA, the pKd with HLA-B*58:01 (setting [10]), with HLA-A*26:01 (setting [10]), with HLA-A*24:03 (setting [10]), with HLA-A*11:01 (setting [10]), in the assay with HLA-A*69:01 (setting [10]) and with HLA-A*01:01 (setting [10]) was at most 4.70 each time. Also, the pKd with HLA-B*35:01 [5] (setting [11]) is 6.91; with HLA-A*31:01 (setting [10]), at most 4.70; in the assay with HLA-A*02:01 (setting [10]) it was at most 4.70; in the assay with HLA-B*07:02 (setting [11]), 7.38; in the assay with HLA-A*30:01 (setting [11]) it was 5.08; in the assay with HLA-B*27:05 [1] (setting [10]), at most 4.70. For the same sequence, the pKd with HLA-B*08:01 [2] (setting [10]) is at most 4.70; with HLA-B*40:01 (setting [10]), at most 4.70; with HLA-B*15:01 (setting [11]), at most 5.30; with HLA-A*03:01 (setting [10]), at most 4.70.

Take LDKGKLWHL: the pKd with HLA-B*46:01 (setting [12]), in the assay with HLA-B*58:01 (setting [12]), with HLA-A*24:02 (setting [12]), with HLA-B*44:02 (setting [12]), with HLA-A*11:01 (setting [12]) and with HLA-A*69:01 (setting [12]) was at most 4.70 each time. The pKd with HLA-A*01:01 (setting [12]), with HLA-A*31:01 (setting [12]), with HLA-A*02:01 (setting [12]), in the assay with HLA-B*07:02 (setting [12]), with HLA-B*27:05 [1] (setting [12]) and with HLA-B*40:01 (setting [12]) was at most 4.70 in each case. Besides, the pKd with HLA-B*15:01 (setting [12]), with HLA-B*18:01 and with HLA-A*03:01 (setting [12]) was at most 4.70 in each case.

With IPRQWHPFA, the negative logarithm of the Kd (pKd) with HLA-B*58:01 (setting [8]) is at most 4.70; in the assay with HLA-A*26:01 (setting [8]), at most 4.70; with HLA-B*44:02 (setting [8]), at most 4.70; with HLA-A*24:03 (setting [8]), 4.97; in the assay with HLA-A*11:01 (setting [8]), at most 4.70; in the assay with HLA-A*69:01 (setting [8]), at most 4.70. The pKd in the assay with HLA-A*01:01 (setting [8]) is at most 4.70; with HLA-B*35:01 [5] (setting [8]), 5.96; with HLA-A*31:01 (setting [8]), at most 4.70; in the assay with HLA-A*02:01 (setting [8]) it was at most 4.70; with HLA-B*07:02 (setting [8]), 6.81; with HLA-A*30:01 (setting [8]), 5.33. Besides, the pKd is at most 4.70 with HLA-B*27:05 [1] (setting [8]); 5.42 with HLA-B*08:01 [2] (setting [8]); at most 4.70 with HLA-B*40:01 (setting [8]); at most 4.70 with HLA-B*15:01 (setting [8]); at most 4.70 with HLA-A*03:01 (setting [8]).

Take WMILRAISF: the pKd was 5.89 in the assay with HLA-B*35:01 [6] and at most 4.70 in the assay with HLA-A*30:01 (source organism: West Nile virus SPU116/89).

As for RQWRWPLGE, the pKd in the assay with HLA-B*27:05 [3] (source organism: Mycobacterium tuberculosis C) is 6.03.

On to WYGMEIRPL, for which the pKd with HLA-A*24:02 (setting [13]) was 6.34; with HLA-A*23:01 (setting [13]) it was 5.74.

Values taken from the Immune Epitope Database (IEDB).
